From patent US11479791B2, “Tools and methods for expression of membrane proteins” (VIB VZW, priority 2012, dated 2022)

Legend:
[1] = biological target: T1, human CXCR4 receptor (hCXCR4Rho1D4) (Homo sapiens, UniProt P61073); experiment: hCXCR4-Nb co-expression in P. pastoris GS115; anti-Rho1D4 immunoblot of membrane protein, quantified by Odyssey software; format: cell-based; conditions: for change of hCXCR4 receptor expression upon Nb co-expression (in words): immunoblot, versus GS115hCXCR4 clone without Nb co-expression
T1 construct: expressed in transfected cells; host or cells: Pichia pastoris GS115
Method: An hCXCR4 expressing Pichia clone was transformed with the four linearized Nanobody expressing vectors as described before. Twenty-four positive clones (six per Nb) were analyzed for protein expression. Growth conditions and membrane protein sample preparations were done as previously described. Equal amounts of total membrane protein (determined by a BCA assay) of induced P. pastoris GS115 clones, expressing only the human CXCR4 receptor, or in combination with one of the anti-hCXCR4 Nanobodies, were run on a 12% SDS-PAGE gel and blotted on a nitrocellulose membrane. The blot was developed with a primary mouse anti-Rho1D4 monoclonal antibody and a secondary Dylight (800 nm) goat anti-mouse IgG on an LI-COR odyssey system. […] The quantification was performed by the Odyssey software by measuring relative fluorescent signals (Table 3).
An hCXCR4 expressing Pichia clone was transformed with the linearized Nanobody expressing vector as described before. Three positive clones were analyzed for protein expression. Growth conditions and membrane protein sample preparations were done as previously described. Equal amounts of total membrane protein (determined by a BCA assay) of induced P. pastoris GS115 clones, expressing only the human CXCR4 receptor, or in combination with a anti-hCXCR4 Nanobody (NbCA4142), or in combination with the negative control Nanobody (NbCA4910), were run on a 12% SDS-PAGE gel and blotted on a nitrocellulose membrane. The blot was developed with a primary mouse anti-Rho1D4 monoclonal antibody and a secondary Dylight (800 nm) goat anti-mouse IgG on an LI-COR odyssey system. For the hCXCR4-specific Nb co-expressing clone we detect more of the anti-Rho1D4 immunoreactive membrane protein band compared to the GS115hCXCR4 clone without Nb co-expression. […] Exact quantification has been calculated by the Odyssey software by measuring relative fluorescent signals (Table 4). It can, thus, be concluded that the increase in receptor expression can be attributed to the Nanobody-specific interaction with the receptor.
Stable positive clones were typically grown in 2 ml (24-well format) or 12.5 ml (shake-flasks) BMGY medium for 48 hours (250 rpm; 28° C.). The cells were harvested by centrifugation and resuspended in the same amount of BMMY medium (1% methanol; 0.5% of methanol was added after 12 hours to maintain induction). After 24 hours the cells were harvested for membrane protein preparations (analysis of hCXCR4 expression and intracellular Nb retention) and the supernatant was used for analysis of extracellular protein expression on SDS-PAGE (Nanobodies).
The cell pellet corresponding to 1 ml of saturated yeast culture (OD600 60-80) was suspended in 1 ml of PBS+Protease inhibitor (Roche). Together with 200 μl of acid washed glass beads, the samples were vortexed heavily at 4° C. for 2×5 minutes. Glass beads, cell debris and intact cells were removed by centrifugation at 2000 rpm (5 min; 4° C.). The supernatant was kept as such or was centrifuged for 45 minutes at 13,000 rpm in a desktop centrifuge at 4° C. The supernatant, cytosolic fraction was discarded and the pellet fraction was re-dissolved in the same amount of fresh PBS+PI by sonication until a homogenous sample was obtained.
Total membrane protein concentration was determined by the BCA protein assay kit (Pierce, Thermo Scientific).
Protein samples were analyzed by SDS-poly-acrylamide gel electrophoresis, according to the Laemmli (Laemmli et al., 1970, Nature, 227:680) or the Tricine method (Schägger et al., 2006, Nat. Protoc. 1:16-22). Before loading on gel, the samples were mixed with 5× Laemmli (60 mM Tris-HCl pH 6.8; 2% SDS, 10% glycerol, 5% β-ME; 0.01% bromophenol blue) and heated for 10 minutes at 95° C. (only the ECM samples, not the membrane protein preparations). Prestained protein markers in the range of 10-250 kDa, Precision Plus protein standards (Bio-Rad), were used as molecular standards. […]

[2] = biological target: T2, hCXCR4 receptor (Homo sapiens, UniProt P61073); experiment: Purification of hCXCR4-Nanobody complex from co-expressing P. pastoris clone by Ni2+ affinity chromatography; format: binding; conditions: DDM-solubilized membrane protein of co-expressing clone; FIG. 9
T2 construct: made in house; host or cells: Pichia pastoris GS115 co-expressing clone
Text: In this way we only purify the receptor fraction that is in a well-folded state, because the Nanobody can only bind the receptor when it is in its native fold. This step strongly increases homogeneity in a membrane protein sample which is useful, for example, for crystallization. […] In case an even more pure sample is required, an extra step of affinity chromatography can be performed using an anti-Rho1D4 affinity matrix, which targets the hCXCR4 part of the complex.
The cell pellet corresponding to 1 L of saturated yeast culture (OD600 60-80) was resuspended in a 1:1 (w/v) ratio of buffer A (1×PBS+Protease inhibitors). Together with 190 g of glass beads, the suspension was brought in the precooled DYNO®-MILL mixing chamber and cells were crushed for 5 minutes. The lysate was centrifuged for 10 minutes at 2,000 rpm (Sorvall F10S-6X500Y rotor) at 4° C. to remove cell debris and intact cells. The supernatant was centrifuged for an hour at 13,000 rpm (Sorvall F10S-6X500Y rotor) at 4° C. to pellet the membrane proteins. The pellet was resuspended in 10 ml buffer A with 1% DDM (n-Dodecyl β-D-maltoside) and put on a rotor for three hours at 4° C. to allow membrane protein solubilization. After solubilization, the solution is centrifuged for one hour at 13,000 rpm (Sorvall SS-34 rotor) at 4° C. to remove unsolubilized membrane proteins. […]

[3] = biological target: T3, β2-adrenergic receptor (Mesocricetus auratus, UniProt P04274); experiment: Purification of β2AR-Nanobody complex from HEK293S cells by Ni2+ affinity chromatography; format: binding; conditions: upon the addition of the antagonist alprenolol hydrochloride; FIG. 10
T3 construct: expressed in transfected cells
Text: The same technique as in Example 4 can be used using a Nanobody that binds an intracellular epitope of the membrane protein. Nanobody CA2780 (amino acid sequence: SEQ ID NO:5; Nucleotide sequence: SEQ ID NO:23) is an example of a Nanobody that binds an intracellular epitope of the β2-adrenergic receptor and that stabilizes the receptor in its active conformation (Rasmussen et al., 2011, Nature 469: 175). We transformed a HEK293 cell line that has a stable inducible β2AR expression with the pCAGGSNbCA2780-plasmid (see Material and Methods section) for transient expression. This Nanobody is not fused to a secretion signal and, therefore, resides in the cytosol upon expression, to allow interaction with the intracellular side of the membrane protein. Nanobody CA2780 has a hexaHis-tag and can, therefore, be purified using Ni^2+ affinity chromatography. […] In this way we strongly enrich for the receptor fraction that is in a well-folded state, because the Nanobody can only bind the receptor when it is in its native fold. This step strongly increases homogeneity in a membrane protein sample going to f.e. crystallization trials. If necessary, a subsequent purification using anti-Rho1D4 affinity chromatography can further enrich the sample for the receptor. […]

[4] = Table 3, anti-Rho1D4 immunoreactive hCXCR4 band, average of two independent experiments
[5] = Table 3, corrected for GS115 negative control
[6] = Table 4, co-expressing clone cl1
[7] = Table 4, co-expressing clone cl2
[8] = Table 4, co-expressing clone cl3

T1 sequence (P61073 with tags, fused parts or gaps isoform P61073-2): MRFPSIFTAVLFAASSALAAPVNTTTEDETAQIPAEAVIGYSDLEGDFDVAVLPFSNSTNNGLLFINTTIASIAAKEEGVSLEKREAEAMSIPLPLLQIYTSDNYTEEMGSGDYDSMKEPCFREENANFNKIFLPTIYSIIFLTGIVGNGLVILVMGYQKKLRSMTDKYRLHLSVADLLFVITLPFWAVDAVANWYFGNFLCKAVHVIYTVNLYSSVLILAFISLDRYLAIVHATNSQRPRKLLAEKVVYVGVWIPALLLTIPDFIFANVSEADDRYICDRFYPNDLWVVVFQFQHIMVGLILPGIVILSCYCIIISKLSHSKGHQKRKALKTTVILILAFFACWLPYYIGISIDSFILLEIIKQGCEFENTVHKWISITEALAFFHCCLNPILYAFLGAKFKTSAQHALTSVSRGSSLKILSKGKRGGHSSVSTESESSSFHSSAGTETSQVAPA
T2 sequence (P61073 with tags, fused parts or gaps isoform P61073-2): as above
T3 sequence (P04274 whole entry): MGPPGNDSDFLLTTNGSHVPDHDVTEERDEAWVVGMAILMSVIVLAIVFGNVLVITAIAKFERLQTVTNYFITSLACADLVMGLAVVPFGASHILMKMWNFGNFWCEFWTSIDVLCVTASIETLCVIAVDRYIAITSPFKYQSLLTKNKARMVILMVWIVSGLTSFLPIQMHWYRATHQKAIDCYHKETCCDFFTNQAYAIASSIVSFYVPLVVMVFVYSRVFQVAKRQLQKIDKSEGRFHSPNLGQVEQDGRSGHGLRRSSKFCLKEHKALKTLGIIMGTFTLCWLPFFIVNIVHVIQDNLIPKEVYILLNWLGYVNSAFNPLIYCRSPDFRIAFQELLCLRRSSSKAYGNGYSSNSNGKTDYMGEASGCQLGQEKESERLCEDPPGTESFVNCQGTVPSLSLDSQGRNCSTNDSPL

| Molecule | Fluorescent units [1, 4] | Blank corrected [1, 5] | change of hCXCR4 receptor expression upon Nb co-expression (in words) [1] | other results |
| --- | --- | --- | --- | --- |
| NbCA4142: Nanobody directed against the extracellular side of the human CXCR4 receptor, SEQ ID NO:2, His6 tag (protein, listed as Lama glama, His6 tag) VHH: QVQLQESGGGLVRTGGSLRLSCAGSGSFFSINPMGWYRQAPGQQRELVATITGSGSTNYADSVKGRFTISRDNAKNTLYLQMNSLKPEDTAVYYCNAGYFDRIGRRYDRWGQGTQVTVSSHHHHHH | 35.81 fluorescent units | 32.47 fluorescent units | more | Fluorescent units ([1]; Table 4, control experiment): 32.76 fluorescent units; Blank corrected ([1]; Table 4, control experiment, corrected for GS115 negative control): 30.35 fluorescent units; retention of the receptor on Ni2+ affinity column via hexaHis-tagged Nanobody [2]: strong retention of the receptor |
| NbCA4500: Nanobody directed against the extracellular side of the human CXCR4 receptor, SEQ ID NO:4, His6 tag (protein, listed as Lama glama, His6 tag) VHH: QVQLQESGGGLVQAGGSLRLSCAASGSTSGIIAMGWYRQAPGKQRELVARISSGSSTNYADSVKGRFTVSRDNAKNTVYLQMNSLKPEDTAVYYCNAVRRGYRNDYNSWGQGTQVTVSSHHHHHH | 21.59 fluorescent units | 18.25 fluorescent units | slight increase | – |
| NbCA4140: Nanobody directed against the extracellular side of the human CXCR4 receptor, SEQ ID NO:1, His6 tag (protein, listed as Lama glama, His6 tag) VHH: QVQLQESGGGLVQPGGSLRLSCAASGSIFSINAMGWYRQAPGKQRELVAAITSGGSTNYADSVKGRFTISRDNAENTVYLQMNNLKPEDTAVYSCNAEGTSGSSRYRRRYEYWGKGTQVTVSSHHHHHH | 39.95 fluorescent units | 36.61 fluorescent units | – | – |
| NbCA4143: Nanobody directed against the extracellular side of the human CXCR4 receptor, SEQ ID NO:3, His6 tag (protein, listed as Lama glama, His6 tag) VHH: QVQLQESGGGLVQPGGSLRLSCAASGFTFSSYAMSWVRQAPGKGLEWVSTINSGGRSANYADSVKGRLTISRDNAKNTLHLQMNSLKPEDTALYYCARPRSVSRNYVPLGYDYLGQGTQVTVSSHHHHHH | 41.06 fluorescent units | 37.72 fluorescent units | – | – |
| NbCA2780: Nanobody that binds an intracellular epitope of the β2-adrenergic receptor and stabilizes its active conformation (Rasmussen et al., 2011), SEQ ID NO:5 (protein, listed as Lama glama) VHH: MEVQLQESGGGLVQAGGSLRLSCAASGSIFSINTMGWYRQAPGKQRELVAAIHSGGSTNYANSVKGRFTISRDNAANTVYLQMNSLKPEDTAVYYCNVKDYGAVLYEYDYWGQGTQVTVSSAAAHHHHHH | – | – | – | interaction between receptor and Nanobody (complex purified by Ni2+ affinity chromatography) [3]: strong interaction |
| NbCA4910: negative control Nanobody which does not recognize the hCXCR4, SEQ ID NO:6 (protein, listed as Lama glama) VHH: QVQLVESGGGLVQPGGSLRLSCAASGSFRSIVSMAWYRQAPGKQRELVASSNSGGSTNYADSVKGRFTISRDNAKNTVYLQMNSLKPEDTAVYWCNVQNRLPGFDAFSGRSIAETYWGQGTQVTVSSAAAHHHHHH | – | – | no increase in the receptor expression | Blank corrected [1, 6]: 6.56 fluorescent units; Fluorescent units [1, 6]: 8.97 fluorescent units; Blank corrected [1, 7]: 17.89 fluorescent units; Fluorescent units [1, 7]: 20.30 fluorescent units; Blank corrected [1, 8]: 19.49 fluorescent units; Fluorescent units [1, 8]: 21.90 fluorescent units |
